From patent US20120164110A1, “DIFFERENTIALLY METHYLATED REGIONS OF REPROGRAMMED INDUCED PLURIPOTENT STEM CELLS, METHOD AND COMPOSITIONS THEREOF” (priority 2009, published 2012)
Entries after “also recorded” stand apart in the source; their conditions may differ.

Experiments:
[1] = test system: intermediate or partial states of reprogramming; conditions: cited from earlier work
NSC-NP-iPSC = test: methylcellulose hematopoietic colony forming assay of EB-differentiated cells; format: cell-based, mouse; conditions: Wnt3a 40 ng/ml in EB culture media between day 2 and 4, versus non-treated EBs
Experimental: (§1) Differentiation of iPSC to hematopoietic and osteogenic lineages was performed as follows. Hematopoietic colony forming activity of d6 EBs differentiated from pluripotent stem cells was measured in methylcellulose medium with IL3, IL6, Epo, and SCF (M3434, StemCell Tech.) as described in Kyba et al. (Cell (109)29-37 (2002)). Hematopoietic colony type was determined on day 10. Colony identity was confirmed by leukostain analysis of cytospin preparation of the methylcellulose colonies. Osteogenic differentiation was performed by culturing pluripotent stem cells in 15 μl hanging drops (800 cells/drop) in ES differentiation media^16. Embryoid bodies (EB) from hanging drops were collected at 2 days, transferred to a 10 cm dish of non-tissue culture grade plastic with 10^−6 M of retinoic acid, and cultured for 3 days on the shaker (50 rpm) in an incubator. EBs were equally distributed among 3 wells of a 6-well tissue culture dish, and cultured in aMEM media supplemented with 10% FBS, 1× penicillin/streptomycin/glutamine (Invitrogen), 2 nM triiodothyronine, 1× insulin/transferrin/[…] (Gibco, #51300-044). The media were changed every other day. On day 11, one well of each sample was used to measure calcium concentration, osteogenic gene expression (RNA isolation), and for Alizarin Red staining. For Alizarin Red staining, cells were washed with PBS and fixed with 4% paraformaldehyde for 5 minutes at 20 C. Fixed cells were incubated for 15 minutes in Alizarin Red staining solution (Alizarin Red (Sigma, A5533) 2% in H2O, pH 4-4.3 adjusted with NH4OH, filtered with 0.45 uM membrane), and washed with Tris-HC1, pH4.0. Elemental calcium concentrations were measured by inductively coupled plasma—atomic emission spectroscopy (ICP-AES, HORIBA Jobin Yvon Activa-M) as described in Nomlru et al. (Anal. Chem. (66)3000-3004 (1994)) at the Center for Materials Science and Engineering at MIT, and three measurements were conducted to obtain mean and standard deviation values. […]

NP-iPSC = test: as above; format: cell-based, mouse; conditions: Wnt3a 40 ng/ml in EB culture media between day 2 and 4, versus non-treated EBs
Experimental: as §1

B-NP-iPSC = test: as above; format: cell-based, mouse; conditions: Wnt3a 40 ng/ml in EB culture media between day 2 and 4, versus non-treated EBs
Experimental: as §1

In the case of `Nc1ncn([C@@H]2O[C@H](CO)[C@@H](O)[C@H]2O)c(=O)n1` [5-AZA, 5-azacytidine], the “effect on intermediate states of reprogramming” value [1] is given as “can convert intermediate states to full pluripotency”.

B1: Wnt3a: exogenous Wnt3a cytokine (R&D System, 1324-WN-002/CF) (protein, UniProt P56704 19-352, looked up)
Protein Wnt-3a: SYPIWWSLAVGPQYSSLGSQPILCASIPGLVPKQLRFCRNYVEIMPSVAEGIKIGIQECQHQFRGRRWNCTTVHDSLAIFGPVLDKATRESAFVHAIASAGVAFAVTRSCAEGTAAICGCSSRHQGSPGKGWKWGGCSEDIEFGGMVSREFADARENRPDARSAMNRHNNEAGRQAIASHMHLKCKCHGLSGSCEVKTCWWSQPDFRAIGDFLKDKYDSASEMVVEKHRESRGWVETLRPRYTYFKVPTERDLVYYEASPNFCEPNPETGSFGTRDRTCNVSSHGIDGCDLLCCGRGHNARAERRREKCRCVFHWCCYVSCQECTRVYDVHTCK
With B1 the blood-forming potential (NSC-NP-iPSC) was “restored”, the blood-forming potential (NP-iPSC) was “restored; also recorded: enhanced” and the hematopoietic potential (B-NP-iPSC) was “little effect”.
